Ends that are not written are not given here. * marks the point of attachment. Biotin = O=C1N[C@H]2[C@H](CS[C@H]2CCCCC(=O)*)N1
B1: CK1δ-derived peptide δ-31 (peptide)
peptide: Biotin-SGSGAGEEVAIKLECVKTK
notes: four amino acid spacer between biotin and the peptide; casein kinase 1 delta (CK1δ), human, UniProt P48730; source: synthetic peptide (peptide library), pre-dissolved in DMSO; not shown: biotin, N-terminal, kept
B2: CK1δ-derived peptide δ-1 (peptide)
peptide: Biotin-SGSGMELRVGNRYRLGRKI
notes: four amino acid spacer between biotin and the peptide; casein kinase 1 delta (CK1δ), human, UniProt P48730; also called P1; source: synthetic peptide (peptide library), pre-dissolved in DMSO; not shown: biotin, N-terminal, kept
B3: CK1ε-derived peptide ε-1 (peptide)
peptide: Biotin-SGSGMELRVGNKYRLGRKI
notes: four amino acid spacer between biotin and the peptide; casein kinase 1 epsilon (CK1ε), human, UniProt P49674; differs from δ-1 only by K for R in the middle of the peptide; source: synthetic peptide (peptide library), pre-dissolved in DMSO; not shown: biotin, N-terminal, kept
B4: CK1ε-derived peptide ε-41 (peptide)
peptide: Biotin-SGSGCVKTKHPQLHIESKF
notes: four amino acid spacer between biotin and the peptide; casein kinase 1 epsilon (CK1ε), human, UniProt P49674; source: synthetic peptide (peptide library), pre-dissolved in DMSO; not shown: biotin, N-terminal, kept
B5: HA-CK1ε (enzyme, human, UniProt P49674 1-416, looked up)
chain: MELRVGNKYRLGRKIGSGSFGDIYLGANIASGEEVAIKLECVKTKHPQLHIESKFYKMMQGGVGIPSIKWCGAEGDYNVMVMELLGPSLEDLFNFCSRKFSLKTVLLLADQMISRIEYIHSKNFIHRDVKPDNFLMGLGKKGNLVYIIDFGLAKKYRDARTHQHIPYRENKNLTGTARYASINTHLGIEQSRRDDLESLGYVLMYFNLGSLPWQGLKAATKRQKYERISEKKMSTPIEVLCKGYPSEFSTYLNFCRSLRFDDKPDYSYLRQLFRNLFHRQGFSYDYVFDWNMLKFGAARNPEDVDRERREHEREERMGQLRGSATRALPPGPPTGATANRLRSAAEPVASTPASRIQPAGNTSPRAISRVDRERKVSMRLHRGAPANVSSSDLTGRQEVSRIPASQTSVPFDHLGK
notes: casein kinase 1 epsilon (CK1ε), human, UniProt P49674; The methods name a pCS-based vector with N-terminal HA tag for human cell culture work; also called bead-coupled HA-CK1ε; casein kinase 1 epsilon; source: bead-coupled; not shown: HA, N-terminal, kept
B6: CK1ε-derived peptide ε-61 (peptide)
peptide: Biotin-SGSGGGVGIPSIKWCGAEG
notes: as for B4
B7: CK1δ-derived peptide δ-91 (peptide)
peptide: Biotin-SGSGDLFNFCSRKFSLKTV
notes: as for B1
B8: CK1δ-derived peptide δ-141 (peptide)
peptide: Biotin-SGSGKGNLVYIIDFGLAKK
notes: as for B1
B9: CK1ε-derived peptide ε-241 (peptide)
peptide: Biotin-SGSGCKGYPSEFSTYLNFC
modifications: cysteine pairing not given here
notes: as for B4
B10: CK1δ-derived peptide δ-231 (peptide)
peptide: Biotin-SGSGKKMSTPIEVLCKGYP
notes: as for B1

Tests used:
Conditions in all cases: both partners purified
His-DDX3X^414-582 [1] = molecular target: T1, His-DDX3X^414-582 (human, UniProt O00571 414-582); assay: ELISA; His-DDX3X^414-582 coated on MaxiSorp plates (0.01 µg/µl, 100 mM sodium carbonate pH 9.6, 4°C overnight); biotinylated peptides 1 µg/well, 2.5 h at room temperature; detection with HRP-streptavidin
T1 construct: DEAD box RNA helicase 3 X-linked (DDX3X), human, UniProt O00571, C-terminal helicase domain, aa 414-582; Named without the His tag in the BLItz methods; also called C-terminal helicase domain of DDX3X; source: dialyzed in 50 mM HEPES pH 8 for ELISA and FTS

His-DDX3X^414-582 [2] = molecular target: T1, His-DDX3X^414-582; assay: fluorescence thermal shift (FTS) assay; 10 µM His-DDX3X^414-582, 20 µM peptide, 50 mM HEPES pH 8, 10x SYPRO-Orange; change of melting temperature
His-DDX3X^414-582 [3] = molecular target: T1, His-DDX3X^414-582; assay: fluorescence thermal shift (FTS) assay; FTS with varying concentrations of peptide; melting temperatures fitted to single site or simple cooperative ligand binding, preferred model chosen
Flag-DDX3X = molecular target: T2, Flag-DDX3X (human, UniProt O00571 1-662); assay: pull-down; purified Flag-DDX3X proteins, incubated with total RNA where indicated, subjected to bead-coupled HA-CK1ε; Western blot
T2 construct: DEAD box RNA helicase 3 X-linked (DDX3X), human, UniProt O00571, full length; pCS-based vector with N-terminal Flag tag; purification as in Cruciat et al., 2013; also called wild-type DDX3X; DDX3X WT; source: HEK293T, transfected, purified on Flag beads (high-salt wash, eluted with Flag peptide); not shown: Flag, N-terminal, kept
T2 sequence (O00571 whole entry): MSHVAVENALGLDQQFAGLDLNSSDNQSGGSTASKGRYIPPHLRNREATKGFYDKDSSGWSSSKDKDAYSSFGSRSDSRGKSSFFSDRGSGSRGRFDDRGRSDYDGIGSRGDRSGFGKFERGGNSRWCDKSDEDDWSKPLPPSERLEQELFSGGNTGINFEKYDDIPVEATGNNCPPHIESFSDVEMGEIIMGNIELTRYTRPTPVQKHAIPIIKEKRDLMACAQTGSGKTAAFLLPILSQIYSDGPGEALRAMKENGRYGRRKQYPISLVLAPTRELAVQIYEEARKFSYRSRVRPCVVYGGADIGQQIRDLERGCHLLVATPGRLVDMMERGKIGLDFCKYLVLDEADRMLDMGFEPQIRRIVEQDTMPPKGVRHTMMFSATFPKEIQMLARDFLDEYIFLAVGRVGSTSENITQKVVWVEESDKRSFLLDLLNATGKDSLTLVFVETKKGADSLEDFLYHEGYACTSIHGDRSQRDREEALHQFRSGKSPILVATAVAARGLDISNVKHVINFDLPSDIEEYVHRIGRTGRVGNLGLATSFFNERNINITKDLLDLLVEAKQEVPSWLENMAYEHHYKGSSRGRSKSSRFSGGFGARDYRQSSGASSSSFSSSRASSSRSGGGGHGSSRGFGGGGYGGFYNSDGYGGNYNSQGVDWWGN

T1 sequence (O00571 414-582): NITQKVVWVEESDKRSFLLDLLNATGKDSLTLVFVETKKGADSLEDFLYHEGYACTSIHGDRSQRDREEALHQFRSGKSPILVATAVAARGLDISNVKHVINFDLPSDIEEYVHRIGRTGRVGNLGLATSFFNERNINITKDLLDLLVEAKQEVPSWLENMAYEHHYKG

Binder | binding result (His-DDX3X^414-582 [1]) | increase of the melting temperature (Tm) of His-DDX3X^414-582 (His-DDX3X^414-582 [2]) [°C] | also measured
B1 | binds | – | –
B2 | – | 3.5 | Kd (His-DDX3X^414-582 [3]): 15.6 µM
B3 | – | 4.6 | –
B4 | – | 6.3 | –
B5 | – | – | binding result (Flag-DDX3X): binds
B6 | binds | – | –
B7 | binds | – | –
B8 | binds | – | –
B9 | binds | – | –
B10 | binds | – | –
